Assay results as given in the supplement of paper PMC10126150.
± gives the standard deviation of the averaged measurements.

System: ATP
Assay: switch fluorescence ratio, 500 uM ATP over buffer (Cy3 cluster intensity, sum of 5 cycles each) (fold (ratio)); higher = stronger signal-on switching upon ATP binding; sequences stand for … in TCGTCGGCAGCGTCAGATGTGTATAAGAGACAGTTTTTTTTTTTTTTTTTTTTTTTTT…TC
Conditions: aptamer strand: ATP DNA aptamer (quencher-CACCTGGGGGAGTATTGCGGAGGAAGG + anchor), 100 nM annealed; ATP concentration: 500 uM
How it was run: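 Cy3-labelled switching-strand clusters on a modified Illumina MiSeq flow-cell were annealed to 100 nM quencher-labelled ATP aptamer and imaged first in selection buffer, then after 15 min with 500 uM ATP at 22 °C. NaOH stripping and re-annealing separated each of five buffer/ATP cycles, and clusters outside 100-1000 RFU were excluded. The fluorescence ratio sums target-cycle Cy3 intensity over buffer-cycle Cy3 intensity per cluster and averages it per switch-domain sequence.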
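Further: ATP exposure 15 min at 22 °C before imaging.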

Sequence	switch fluorescence ratio
AATTATTTTA	1.022 ± 0.0018
TTTAGCCGGT	0.995 ± 0.012
ATATGCTTTC	0.994 ± 0.011
TTTAGGCAAT	3.43 ± 2.7
ATTGGAGCGT	0.986 ± 0.0013
ATATTTGGCG	1.007 ± 0.0029
TATAGTTGTG	0.965 ± 0.025
CTCTGTATGT	1.035 ± 0.0081
GTTGTTTTAA	1.05 ± 0.011
CGCGTCGGGA	0.976 ± 0.044
TGGAGAGGGG	0.996 ± 0.05
TTAGGGTCGG	1 ± 0.036
CTAGTATGGA	1.02 ± 0.031
GTTAAAAGTG	0.987 ± 0.03
ATTTTTTTAG	0.988 ± 0.02
TTTCGGAGAA	0.962 ± 0.028
AGGGCGAAGA	0.96 ± 0.022
TTTTCTATGT	1 ± 0.019
TTGGTAAATG	0.999 ± 0.012
ATTCTTTACA	1.06 ± 0.014
TATGGTCTTA	0.987 ± 0.021
GGAAAAGAGA	1.01 ± 0.017
CGTTGGGTTC	0.969 ± 0.013
CCGATTACGC	1.9 ± 0.13
TCGCCGAAAT	1.7 ± 0.35

Sequence	switch fluorescence ratio
CCATGGTTGT	1.011 ± 0.005
ATGTTGTCGG	0.987 ± 0.022
CAAATAACAT	1.01 ± 0.015
TTAGTTTGCA	1.02 ± 0.022
GAGTTAAGAC	0.991 ± 0.049
GGTTGTTTGT	0.995 ± 0.015
GGTTATTGTG	0.968 ± 0.027
TTTTTAATTG	0.997 ± 0.024
TGTTTTATGT	0.989 ± 0.032
AATAGAATAC	1.163 ± 0.0021
CTATCATAGT	0.98 ± 0.032
TAGGGCCACG	1.01 ± 0.018
TTTTTTCCCC	1.04 ± 0.047
TTGTGGGGGA	1.02 ± 0.046
GCCTGCGGGG	1.04 ± 0.046
TTAACACGGA	1.01 ± 0.019
GTGGTATGCA	1.02 ± 0.074
GGGGATAACA	1.028 ± 0.00063
TTATCGAGAA	0.9879 ± 0.0024
GTTGTGCTGG	1.01 ± 0.018
TTATTCGGTG	0.98 ± 0.021
TATTCTTTTT	0.968 ± 0.04
TTGTTCAAGT	0.998 ± 0.043
CCTCTACG	1.41 ± 0.044
TCGTAAACGG	1.01 ± 0.02

Sequence	switch fluorescence ratio
CCGGGAAGGG	1.05 ± 0.012
GTTATACGAA	1.028 ± 0.0085
GATCTTTTCG	1.01 ± 0.037
TCGGTCGATT	1.019 ± 0.0031
GTTGGGGGGT	0.989 ± 0.02
GGATGGGGTC	0.975 ± 0.02
GTCGGAGCGA	1.83 ± 0.57
ATTTCTCTTG	0.998 ± 0.025
GAGTCGGTGT	1.026 ± 0.0063
CCTGGGAAGG	0.991 ± 0.025
CTTGTTGGGT	0.999 ± 0.033
TAAATAGTAC	1.07 ± 0.032
TGGGGAGGGT	1.01 ± 0.035
CCCGAAGGGC	1.01 ± 0.081
GTTGGATTTG	0.994 ± 0.017
GTGGTTGGAA	0.963 ± 0.022
GGGGAAACGG	1.06 ± 0.085
GGGGTTATAG	1.04 ± 0.12
TAAGTCGAAA	1 ± 0.019
TAAAAATACT	1.07 ± 0.11
GGGGAGTTTA	1.027 ± 0.0017
AAGCTCTGTG	0.95 ± 0.027
AATTTGGGGT	0.995 ± 0.035
ATTAAAAGGA	0.991 ± 0.073
GACGTGAAGG	1.026 ± 0.0055

Sequence	switch fluorescence ratio
TGCTGGATTA	1.01 ± 0.031
CAAGAGGGGC	1 ± 0.026
TTTTCCTTTT	1.04 ± 0.082
ACATTGGCGG	0.993 ± 0.066
GGCTTGGCCC	1.015 ± 0.0063
CGGGGGGCGG	0.986 ± 0.032
AGGAAGATCC	1.002 ± 0.0083
TTTCTGGTCT	1.03 ± 0.012
CTGGGGGAGT	1 ± 0.012
CGCATTTGGT	1.07 ± 0.036
CTGTTGTGGG	0.989 ± 0.039
TTACTTGGGA	1 ± 0.012
ATATATGAGG	0.974 ± 0.03
CGAAGGGAAT	1.03 ± 0.033
TTTTCAGAGT	1 ± 0.022
GCAGGAGTAG	1.01 ± 0.038
TAAGTGTTGG	1 ± 0.018
TGGTTGGTC	0.965 ± 0.039
TAGGAATGGG	0.989 ± 0.034
GCTTTCCCTT	1.022 ± 0.01
CGCTGTCGGA	1.014 ± 0.0078
TTTAGTGACA	0.9978 ± 0.0036
TTGAGGGTTG	0.987 ± 0.037
TCGTTTGGGT	0.978 ± 0.035
CCAGTAAAAT	1.01 ± 0.019
